The text below walks through data of patent publication US20050232925A1, “Protease activity of thrombin inhibits angiogenesis” (priority 2002, published 2005).

For test [1], the system named is 4T1 murine breast cancer cell line. As to the kind of experiment: Primary tumor growth of transfected 4T1 cells in BALB/c mice. The test is classed as in vivo. The following applies: stable expression in 4T1 cells, mammary pad of BALB/c mice, vs empty vector, five weeks. From the text: Construction of mutant uPA clones and cell transfection. We chose to pursue a genetic approach, in which we stably transfected an aggressive and highly metastatic murine breast cancer cell line (4T1) with the genes for wild type uPA, tPA and a receptor binding mutant of uPA (uPAm). We inserted the cDNA encoding murine tPA into pcDNA 3.1 (+) (Invitrogen), a CMV driven mammalian expression vector, by restriction enzyme digestion of BamHI and NheI. Wild type uPA cDNA was inserted to the pcDNA 3.1 (+) expression vector and the transfected into 4T1 cells in a similar fashion as described for the tPA cDNA. Residues 22, 27, 29 and 30 on the growth factor domain of the murine uPA molecule have been implicated in binding to mouse uPAR.
The pcDNA 3.1-tPA, pcDNA 3.1-wild type uPA, pcDNA 3.1-uPAm constructs, as well as an empty vector control were introduced into 4T1 cells by transfection using lipofectamine (Gibco-BRL) reagent. We selected 12-14 stable single clones in each group with 500 ug/mL of hygromycin. Each of the clones was evaluated for generation of the gene of interest by northern blot. The clones that had the highest generation of the genes of interest were selected. […]
Experiments using transfected tumor cells. […] Primary tumor size was measured every other day for a total of five weeks using calipers and calculated using the standard formula (width2×length×0.52). […]

Test [2] deals with HUVEC cells. Nature of the test: In vitro angiogenesis (matrigel tube formation) assay. The test is classed as cell-based, human. The following applies: in the absence of plasma; rt-PA 1 μg/ml, captopril 0.1 μM. How it is done: In Vitro Angiogenesis (matrigel tube formation) Assay. Unpolymerized matrigel (7 mg/ml) was placed in the wells (100 μl/well) of a pre-chilled 48-well cell culture plate and then incubated at 37° C. for 30-45 minutes. HUVEC cells were harvested in trypsin and resuspended in EC medium (4×10^4 in 300 μl). Cells were treated with the different agents before plated onto the matrigel-coated plates. […] Microphotographs of the center of each well at low power (40×) were taken with a SPOT camera (Diagnostic Instruments Inc; Sterling Heights, Mich.) and the aid of an imaging capture software (Compix Inc Imaging Systems; Township, Pa.). The microphotographs were quantitatively analyzed (total tube length) with the Simple PCI imaging analysis software (Compix).
Matrigel tube formation assays. Samples collected from the purification process were exchanged into 1×PBS and reconstituted into 1× concentration (by volume) compared to the input tPA/captopril-treated plasma. They were tested in the matrigel tube formation assays at 10% (v/v) as follows. […] Tube formation was examined (4× magnification) through an inverted phase contrast microscope (Nikon Corporation; Tokyo, Japan) and recorded by a Spot RT camera (Diagnostic Instruments Inc; Sterling Heights, Mich.) using an automated image capture software (Compix Inc Imaging Systems; Township, Pa.).

B1: tPA: murine tPA expressed from pcDNA 3.1 in 4T1 cells (not the rt-PA drug) (protein, UniProt P11214 33-559, looked up)
Tissue-type plasminogen …: SYRATCRDEPTQTTYQQHQSWLRPMLRSSRVEYCRCNSGLVQCHSVPVRSCSEPRCFNGGTCQQALYFSDFVCQCPDGFVGKRCDIDTRATCFEEQGITYRGTWSTAESGAECINWNSSVLSLKPYNARRPNAIKLGLGNHNYCRNPDRDLKPWCYVFKAGKYTTEFCSTPACPKGKSEDCYVGKGVTYRGTHSLTTSQASCLPWNSIVLMGKSYTAWRTNSQALGLGRHNYCRNPDGDARPWCHVMKDRKLTWEYCDMSPCSTCGLRQYKRPQFRIKGGLYTDITSHPWQAAIFVKNKRSPGERFLCGGVLISSCWVLSAAHCFLERFPPNHLKVVLGRTYRVVPGEEEQTFEIEKYIVHEEFDDDTYDNDIALLQLRSQSKQCAQESSSVGTACLPDPNLQLPDWTECELSGYGKHEASSPFFSDRLKEAHVRLYPSSRCTSQHLFNKTVTNNMLCAGDTRSGGNQDLHDACQGDSGGPLVCMINKQMTLTGIISWGLGCGQKDVPGVYTKVTNYLDWIHDNMKQ
Consider B1, for which the “inhibition of primary tumor growth” value in test [1] is “significantly inhibit tumor cell growth”.

B2: rt-PA: rt-PA (Genentech), recombinant tissue plasminogen activator; called tPA in Example 2 (protein, UniProt P00750 36-562, looked up)
Tissue-type plasminogen …: SYQVICRDEKTQMIYQQHQSWLRPVLRSNRVEYCWCNSGRAQCHSVPVKSCSEPRCFNGGTCQQALYFSDFVCQCPEGFAGKCCEIDTRATCYEDQGISYRGTWSTAESGAECTNWNSSALAQKPYSGRRPDAIRLGLGNHNYCRNPDRDSKPWCYVFKAGKYSSEFCSTPACSEGNSDCYFGNGSAYRGTHSLTESGASCLPWNSMILIGKVYTAQNPSAQALGLGKHNYCRNPDGDAKPWCHVLKNRRLTWEYCDVPSCSTCGLRQYSQPQFRIKGGLFADIASHPWQAAIFAKHRRSPGERFLCGGILISSCWILSAAHCFQERFPPHHLTVILGRTYRVVPGEEEQKFEVEKYIVHKEFDDDTYDNDIALLQLKSDSSRCAQESSVVRTVCLPPADLQLPDWTECELSGYGKHEALSPFYSERLKEAHVRLYPSSRCTSQHLLNRTVTDNMLCAGDTRSGGPQANLHDACQGDSGGPLVCLNDGRMTLVGIISWGLGCGQKDVPGVYTKVTNYLDWIRDNMRP
modifications: alteplase
Regarding B2, in test [2], the “inhibition of tube formation” value is given as “did not cause significant inhibition of tube formation”.
